From publication PMC12205980

Target: GP55 (ORF55-encoded replicase of lactococcal phage 1706), full length (lactococcal phage 1706)
Assay: SEC-MALS; Superdex 200 Increase 10/300 GL, 20 mM Tris-HCl pH 8.0, 100 mM NaCl, 1 mM TCEP, 0.5 ml/min; Wyatt Dawn Heleos II; self-association of the Ni-NTA-purified protein

GP55 (ORF55-encoded replicase of lactococcal phage 1706), full length (enzyme)
stoichiometry N: 2
